{"source": "the supplement of paper PMC5998384", "key": {"HeLa Kyoto [1]": {"system": "HeLa Kyoto", "assay": "solubility in G1/S (NP-40 vs SDS abundance) (log2 ratio); higher = more soluble", "settings": "cell cycle stage: G1/S"}, "HeLa Kyoto [2]": {"system": "HeLa Kyoto", "assay": "melting temperature (median over replicates), in situ; higher = more thermally stable"}, "HeLa Kyoto [3]": {"system": "HeLa Kyoto", "assay": "thermal stability score vs G1/S (z-score of summed log2 fold changes over temperatures); higher = more thermally stable than in G1/S"}, "HeLa Kyoto [4]": {"system": "HeLa Kyoto", "assay": "solubility change mitosis vs G1/S (difference of NP-40 vs SDS log2 ratios) (log2 ratio difference); higher = more soluble in mitosis"}, "[5]": {"settings": "cell cycle stage: early G1 (4.5 h after nocodazole release)"}}, "data": [{"sequence": "MLSQVYRCGFQPFNQHLLPWVKCTTVFRSHCIQPSVIRHVRSWSNIPFITVPLSRTHGKSFAHRSELKHAKRIVVKLGSAVVTRGDECGLALGRLASIVEQVSVLQNQGREMMLVTSGAVAFGKQRLRHEILLSQSVRQALHSGQNQLKEMAIPVLEARACAAAGQSGLMALYEAMFTQYSICAAQILVTNLDFHDEQKRRNLNGTLHELLRMNIVPIVNTNDAVVPPAEPNSDLQGVNVISVKDNDSLAARLAVEMKTDLLIVLSDVEGLFDSPPGSDDAKLIDIFYPGDQQSVTFGTKSRVGMGGMEAKVKAALWALQGGTSVVIANGTHPKVSGHVITDIVEGKKVGTFFSEVKPAGPTVEQQGEMARSGGRMLATLEPEQRAEIIHHLADLLTDQRDEILLANKKDLEEAEGRLAAPLLKRLSLSTSKLNSLAIGLRQIAASSQDSVGRVLRRTRIAKNLELEQVTVPIGVLLVIFESRPDCLPQVAALAIASGNGLLLKGGKEAAHSNRILHLLTQEALSIHGVKEAVQLVNTREEVEDLCRLDKMIDLIIPRGSSQLVRDIQKAAKGIPVMGHSEGICHMYVDSEASVDKVTRLVRDSKCEYPAACNALETLLIHRDLLRTPLFDQIIDMLRVEQVKIHAGPKFASYLTFSPSEVKSLRTEYGDLELCIEVVDNVQDAIDHIHKYGSSHTDVIVTEDENTAEFFLQHVDSACVFWNASTRFSDGYRFGLGAEVGISTSRIHARGPVGLEGLLTTKWLLRGKDHVVSDFSEHGSLKYLHENLPIPQRNTN [ALDH18A1]", "values": [{"measurement": "solubility in G1/S (log2)", "setting": "HeLa Kyoto [1]", "result": -0.0382}, {"measurement": "melting temperature", "setting": "HeLa Kyoto [2]; cell cycle stage: G1/S", "result": 52.5, "unit": "°C"}, {"measurement": "melting temperature", "setting": "HeLa Kyoto [2]; cell cycle stage: mitosis", "result": 52.1, "unit": "°C"}, {"measurement": "thermal stability score", "setting": "HeLa Kyoto [3]; [5]", "result": -0.326}, {"measurement": "thermal stability score", "setting": "HeLa Kyoto [3]; cell cycle stage: mitosis", "result": -2.31}, {"measurement": "solubility change mitosis (log2)", "setting": "HeLa Kyoto [4]", "result": -0.0142}]}, {"sequence": "MLSRAVCGTSRQLAPVLGYLGSRQKHSLPDLPYDYGALEPHINAQIMQLHHSKHHAAYVNNLNVTEEKYQEALAKGDVTAQIALQPALKFNGGGHINHSIFWTNLSPNGGGEPKGELLEAIKRDFGSFDKFKEKLTAASVGVQGSGWGWLGFNKERGHLQIAACPNQDPLQGTTGLIPLLGIDVWEHAYYLQYKNVRPDYLKAIWNVINWENVTERYMACKK [SOD2]", "values": [{"measurement": "solubility in G1/S (log2)", "setting": "HeLa Kyoto [1]", "result": 0.614}, {"measurement": "melting temperature", "setting": "HeLa Kyoto [2]; cell cycle stage: G1/S", "result": 58.3, "unit": "°C"}, {"measurement": "melting temperature", "setting": "HeLa Kyoto [2]; cell cycle stage: mitosis", "result": 56.8, "unit": "°C"}, {"measurement": "thermal stability score", "setting": "HeLa Kyoto [3]; [5]", "result": -0.479}, {"measurement": "thermal stability score", "setting": "HeLa Kyoto [3]; cell cycle stage: mitosis", "result": -0.233}, {"measurement": "solubility change mitosis (log2)", "setting": "HeLa Kyoto [4]", "result": 0.133}]}, {"sequence": "MLSSTDFTFASWELVVRVDHPNEEQQKDVTLRVSGDLHVGGVMLKLVEQINISQDWSDFALWWEQKHCWLLKTHWTLDKYGVQADAKLLFTPQHKMLRLRLPNLKMVRLRVSFSAVVFKAVSDICKILNIRRSEELSLLKPSGDYFKKKKKKDKNNKEPIIEDILNLESSPTASGSSVSPGLYSKTMTPIYDPINGTPASSTMTWFSDSPLTEQNCSILAFSQPPQSPEALADMYQPRSLVDKAKLNAGWLDSSRSLMEQGIQEDEQLLLRFKYYSFFDLNPKYDAVRINQLYEQARWAILLEEIDCTEEEMLIFAALQYHISKLSLSAETQDFAGESEVDEIEAALSNLEVTLEGGKADSLLEDITDIPKLADNLKLFRPKKLLPKAFKQYWFIFKDTSIAYFKNKELEQGEPLEKLNLRGCEVVPDVNVAGRKFGIKLLIPVADGMNEMYLRCDHENQYAQWMAACMLASKGKTMADSSYQPEVLNILSFLRMKNRNSASQVASSLENMDMNPECFVSPRCAKRHKSKQLAARILEAHQNVAQMPLVEAKLRFIQAWQSLPEFGLTYYLVRFKGSKKDDILGVSYNRLIKIDAATGIPVTTWRFTNIKQWNVNWETRQVVIEFDQNVFTAFTCLSADCKIVHEYIGGYIFLSTRSKDQNETLDEDLFHKLTGGQD [FERMT1]", "values": [{"measurement": "solubility in G1/S (log2)", "setting": "HeLa Kyoto [1]", "result": -0.0778}, {"measurement": "melting temperature", "setting": "HeLa Kyoto [2]; cell cycle stage: G1/S", "result": 50.2, "unit": "°C"}, {"measurement": "melting temperature", "setting": "HeLa Kyoto [2]; cell cycle stage: mitosis", "result": 49.8, "unit": "°C"}, {"measurement": "thermal stability score", "setting": "HeLa Kyoto [3]; [5]", "result": -0.277}, {"measurement": "thermal stability score", "setting": "HeLa Kyoto [3]; cell cycle stage: mitosis", "result": -0.501}, {"measurement": "solubility change mitosis (log2)", "setting": "HeLa Kyoto [4]", "result": -0.199}]}, {"sequence": "MLTNLRIFAMSHQTIPSVYINNICCYKIRASLKRLKPHVPLGRNCSSLPGLIGNDIKSLHSIINPPIAKIRNIGIMAHIDAGKTTTTERILYYSGYTRSLGDVDDGDTVTDFMAQERERGITIQSAAVTFDWKGYRVNLIDTPGHVDFTLEVERCLRVLDGAVAVFDASAGVEAQTLTVWRQADKHNIPRICFLNKMDKTGASFKYAVESIREKLKAKPLLLQLPIGEAKTFKGVVDVVMKEKLLWNCNSNDGKDFERKPLLEMNDPELLKETTEARNALIEQVADLDDEFADLVLEEFSENFDLLPAEKLQTAIHRVTLAQTAVPVLCGSALKNKGIQPLLDAVTMYLPSPEERNYEFLQWYKDDLCALAFKVLHDKQRGPLVFMRIYSGTIKPQLAIHNINGNCTERISRLLLPFADQHVEIPSLTAGNIALTVGLKHTATGDTIVSSKSSALAAARRAEREGEKKHRQNNEAERLLLAGVEIPEPVFFCTIEPPSLSKQPDLEHALKCLQREDPSLKVRLDPDSGQTVLCGMGELHIEIIHDRIKREYGLETYLGPLQVAYRETILNSVRATDTLDRTLGDKRHLVTVEVEARPIETSSVMPVIEFEYAESINEGLLKVSQEAIENGIHSACLQGPLLGSPIQDVAITLHSLTIHPGTSTTMISACVSRCVQKALKKADKQVLEPLMNLEVTVARDYLSPVLADLAQRRGNIQEIQTRQDNKVVIGFVPLAEIMGYSTVLRTLTSGSATFALELSTYQAMNPQDQNTLLNRRSGLT [GFM2]", "values": [{"measurement": "solubility in G1/S (log2)", "setting": "HeLa Kyoto [1]", "result": -0.0849}, {"measurement": "melting temperature", "setting": "HeLa Kyoto [2]; cell cycle stage: G1/S", "result": 49.2, "unit": "°C"}, {"measurement": "melting temperature", "setting": "HeLa Kyoto [2]; cell cycle stage: mitosis", "result": 49.3, "unit": "°C"}, {"measurement": "thermal stability score", "setting": "HeLa Kyoto [3]; [5]", "result": 1.87}, {"measurement": "thermal stability score", "setting": "HeLa Kyoto [3]; cell cycle stage: mitosis", "result": 1.26}, {"measurement": "solubility change mitosis (log2)", "setting": "HeLa Kyoto [4]", "result": -0.0596}]}, {"sequence": "MLTRVKSAVANFMGGIMAGSSGSEHGGGSCGGSDLPLRFPYGRPEFLGLSQDEVECSADHIARPILILKETRRLPWATGYAEVINAGKSTHNEDQASCEVLTVKKKAGAVTSTPNRNSSKRRSSLPNGEGLQLKENSESEGVSCHYWSLFDGHAGSGAAVVASRLLQHHITEQLQDIVDILKNSAVLPPTCLGEEPENTPANSRTLTRAASLRGGVGAPGSPSTPPTRFFTEKKIPHECLVIGALESAFKEMDLQIERERSSYNISGGCTALIVICLLGKLYVANAGDSRAIIIRNGEIIPMSSEFTPETERQRLQYLAFMQPHLLGNEFTHLEFPRRVQRKELGKKMLYRDFNMTGWAYKTIEDEDLKFPLIYGEGKKARVMATIGVTRGLGDHDLKVHDSNIYIKPFLSSAPEVRIYDLSKYDHGSDDVLILATDGLWDVLSNEEVAEAITQFLPNCDPDDPHRYTLAAQDLVMRARGVLKDRGWRISNDRLGSGDDISVYVIPLIHGNKLS [PPM1H]", "values": [{"measurement": "solubility in G1/S (log2)", "setting": "HeLa Kyoto [1]", "result": 0.29}, {"measurement": "melting temperature", "setting": "HeLa Kyoto [2]; cell cycle stage: G1/S", "result": 55.9, "unit": "°C"}, {"measurement": "melting temperature", "setting": "HeLa Kyoto [2]; cell cycle stage: mitosis", "result": 56.9, "unit": "°C"}, {"measurement": "thermal stability score", "setting": "HeLa Kyoto [3]; [5]", "result": -2.63}, {"measurement": "thermal stability score", "setting": "HeLa Kyoto [3]; cell cycle stage: mitosis", "result": -1.3}, {"measurement": "solubility change mitosis (log2)", "setting": "HeLa Kyoto [4]", "result": 0.221}]}, {"sequence": "MLWPRLAAAEWAALAWELLGASVLLIAVRWLVRRLGPRPGGLGRSGTPVPPPSAAAAPASGEMTMDALLARLKLLNPDDLREEIVKAGLKCGPITSTTRFIFEKKLAQALLEQGGRLSSFYHHEAGVTALSQDPQRILKPAEGNPTDQAGFSEDRDFGYSVGLNPPEEEAVTSKTCSVPPSDTDTYRAGATASKEPPLYYGVCPVYEDVPARNERIYVYENKKEALQAVKMIKGSRFKAFSTREDAEKFARGICDYFPSPSKTSLPLSPVKTAPLFSNDRLKDGLCLSESETVNKERANSYKNPRTQDLTAKLRKAVEKGEEDTFSDLIWSNPRYLIGSGDNPTIVQEGCRYNVMHVAAKENQASICQLTLDVLENPDFMRLMYPDDDEAMLQKRIRYVVDLYLNTPDKMGYDTPLHFACKFGNADVVNVLSSHHLIVKNSRNKYDKTPEDVICERSKNKSVELKERIREYLKGHYYVPLLRAEETSSPVIGELWSPDQTAEASHVSRYGGSPRDPVLTLRAFAGPLSPAKAEDFRKLWKTPPREKAGFLHHVKKSDPERGFERVGRELAHELGYPWVEYWEFLGCFVDLSSQEGLQRLEEYLTQQEIGKKAQQETGEREASCRDKATTSGSNSISVRAFLDEDDMSLEEIKNRQNAARNNSPPTVGAFGHTRCSAFPLEQEADLIEAAEPGGPHSSRNGLCHPLNHSRTLAGKRPKAPRGEEAHLPPVSDLTVEFDKLNLQNIGRSVSKTPDESTKTKDQILTSRINAVERDLLEPSPADQLGNGHRRTESEMSARIAKMSLSPSSPRHEDQLEVTREPARRLFLFGEEPSKLDQDVLAALECADVDPHQFPAVHRWKSAVLCYSPSDRQSWPSPAVKGRFKSQLPDLSGPHSYSPGRNSVAGSNPAKPGLGSPGRYSPVHGSQLRRMARLAELAAL [ANKLE2]", "values": [{"measurement": "solubility in G1/S (log2)", "setting": "HeLa Kyoto [1]", "result": 0.122}, {"measurement": "melting temperature", "setting": "HeLa Kyoto [2]; cell cycle stage: G1/S", "result": 47.5, "unit": "°C"}, {"measurement": "melting temperature", "setting": "HeLa Kyoto [2]; cell cycle stage: mitosis", "result": 48.1, "unit": "°C"}, {"measurement": "thermal stability score", "setting": "HeLa Kyoto [3]; [5]", "result": 2.02}, {"measurement": "thermal stability score", "setting": "HeLa Kyoto [3]; cell cycle stage: mitosis", "result": 3.19}, {"measurement": "solubility change mitosis (log2)", "setting": "HeLa Kyoto [4]", "result": 0.146}]}]}
